B1: VvRsbS, recombinant, untagged, co-expressed with VvRsbR (natural protein, Vibrio vulnificus CMCP6, UniProt A0A3Q0KX63 1-117, looked up)
chain: MTMQSAISISKLQDVLIASVQVDLTESTLRDFSLDLLDAVKSTRAKGVMIELSGVKTLDGESMHRLLDVVKTVEVMGRRCLLVGLRPGVVIGLMDIGIDLASTLCVADLEQGFLYLE
notes: VvRsbS of Vibrio vulnificus CMCP6, locus VV2_0074; STAS domain made up of 115 residues; also called VvRsbS2 (dimer)
B2: VvRsbR, recombinant, untagged, co-expressed with VvRsbS (natural protein, Vibrio vulnificus CMCP6, UniProt A0A3Q0KX46 1-306, looked up)
chain: MSLGSVLNKVEDADELLKLHDLTEADLALIRKFGQIMVPKLDEYVKHFYDWLRNTPEYEQYFGDAQKLQRVQDSQVRYWKTFFDARIDSAYLKERRDVGEIHARVGLPLPTYFAGMNISMVIFTKRMYDGSLYSDEYSSLVTAFTKLLHLDTTIVVDTYSRLINKRISEQSEALLAMSTPVTMIWQDILMLPIVGIIDSKRAQDIMSAVLNKISENRAKIFIMDISGVAVVDTAVANHFIKITKATKLMGCDCLVSGVSPSIARTMVQLGINVGEVRTNATLRDALENAFKIVGLTVSGLKHFPHE
notes: VvRsbR of Vibrio vulnificus CMCP6, locus VV2_0073; full-length gene amplified from genomic DNA, expressed untagged from pJPF012; Carries a heme in its N-terminal globin coupled sensor domain; In PDB 7O01 the linker helix was modelled as poly-alanine; also called VvRsbR2 (dimer)

Key:
[1] = target: the molecule itself; test: cryo-EM structure; purified, oxidized VvRsbR:VvRsbS complex (co-expressed in E. coli) at 0.3 mg/mL; single particle reconstructions in C1 and D2; homology models fitted into the map
[2] = target: B1; test: quantification of fluorescently stained SDS-PAGE bands of the purified complex; purified VvRsbR:VvRsbS complex separated by SDS PAGE, stained with Krypton, Typhoon scanner, bands quantified with ImageQuant; settings: both partners purified

Binder	stoichiometry N [1]	stoichiometry N [2]
B1	2	–
B2	2	2.4 VvRsbR:VvRsbS
